Data: publication PMC10709637, “Phospholipids are imported into mitochondria by VDAC, a dimeric beta barrel scramblase” (Nature Communications, 2023)

Experiments:
[1] = biological target: T1, C-terminal Twin-Strep-tagged yeast VDAC (Por1-TS) (S. cerevisiae), P04840; experiment: cross-linking; EGS cross-linking after reconstitution into LUVs (POPC/POPG) in 10 mM MOPS/KOH pH 7.0, 100 mM KCl; 16x mole excess of EGS, 20 °C, 40 min; SDS-PAGE immunoblot (anti-His for human VDAC, anti-VDAC1/Porin for yeast porin); details: remark: other sources report otherwise
T1 chain: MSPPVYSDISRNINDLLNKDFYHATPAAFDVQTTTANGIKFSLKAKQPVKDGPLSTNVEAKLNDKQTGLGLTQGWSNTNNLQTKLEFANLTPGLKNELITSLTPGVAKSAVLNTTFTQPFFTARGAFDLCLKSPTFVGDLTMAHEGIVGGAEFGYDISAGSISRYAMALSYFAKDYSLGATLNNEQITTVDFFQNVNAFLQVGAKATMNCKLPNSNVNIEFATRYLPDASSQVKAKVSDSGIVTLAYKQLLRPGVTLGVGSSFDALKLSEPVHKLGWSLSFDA

[2] = biological target: the molecule itself; experiment: as above
[3] = biological target: T2, human VDAC2 (Voltage Dependent Anion Channel 2), N-terminal hexahistidine tagged (human), P45880; experiment: vesicle occupancy statistics (Poisson analysis of the dithionite channel assay); different amounts of protein reconstituted into a fixed quantity of LUVs; fraction of vesicles with a channel against PPR*, one-phase exponential fit; MW 31 kDa, vesicle diameter 150 nm; details: remark: other sources report otherwise
T2 chain: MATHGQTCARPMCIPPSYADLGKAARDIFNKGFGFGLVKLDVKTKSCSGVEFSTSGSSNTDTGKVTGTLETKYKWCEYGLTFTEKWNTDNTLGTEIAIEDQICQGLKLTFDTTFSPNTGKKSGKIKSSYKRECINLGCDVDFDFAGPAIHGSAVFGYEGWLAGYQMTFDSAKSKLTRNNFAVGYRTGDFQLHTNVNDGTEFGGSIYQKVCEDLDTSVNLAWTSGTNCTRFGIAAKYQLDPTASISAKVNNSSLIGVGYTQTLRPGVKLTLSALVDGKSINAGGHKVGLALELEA

B1: C-terminal Twin-Strep-tagged yeast VDAC (Por1-TS), P04840 1-283 (natural protein)
chain: T1 chain
stoichiometry N [1]: 2

B2: human VDAC1 pentamutant VDAC1-5V (T60V, Y62V, E73V, T83V, S101V), N-terminal hexahistidine tagged (natural protein, UniProt P21796 1-283, looked up)
chain: MAVPPTYADLGKSARDVFTKGYGFGLIKLDLKTKSENGLEFTSSGSANTETTKVTGSLEVKVRWTEYGLTFTVKWNTDNTLGVEITVEDQLARGLKLTFDVSFSPNTGKKNAKIKTGYKREHINLGCDMDFDIAGPSIRGALVLGYEGWLAGYQMNFETAKSRVTQSNFAVGYKTDEFQLHTNVNDGTEFGGSIYQKVNKKLETAVNLAWTAGNSNTRFGIAAKYQIDPDACFSAKVNNSSLIGLGYTQTLKPGIKLTLSALLDGKNVNAGGHKLGLGLEFQA
notes: human VDAC1 with five substitutions to valine; pCold vector
binding result [2]: binds

B3: human VDAC2 (Voltage Dependent Anion Channel 2), N-terminal hexahistidine tagged, P45880 1-294 (natural protein)
chain: T2 chain
stoichiometry N [3]: 10
